In patent US20200347130A1 (JIANGSU HENGRUI MEDICINE, published 2020):

B1: h1722-010 (antibody, V domains shown)
VH: EVQLVQSGAEVKKPGSSVKVSCKASGGTFSDYWMHWVRQAPGQGLEWIGMLHPNSGTTSFNEKFKIRVTITADKSTSTAYMELSSLRSEDTAVYYCASDYSGPFAYWGQGTLVTVSS
VL: DIQLTQSPSSLSASVGDRVTITCSASSSVNYIHWYQQKPGKAPKRWIFDTSKLASGVPSRFSGSGSGTDYTLTISSLQPEDFATYYCQQWRSNPLTFGQGTKLEIK
notes: Only variable regions are tied to this name; also called M722-010
B2: h1719-010 (antibody, V domains shown)
VH: EVTLKESGPVLVKPTETLTLTCTVSGFSLSSYGVSWVRQPPGKGLEWLGVIWGDGNTNYHSVLISRLTISKDTSKSQVVLTLTNMDPVDTATYYCAKQNYYGSRYGYPIDYWGQGTTVTVSS
VL: DIQMTQSPSSVSASVGDRVTITCKATQDVGTAVAWYQQKPGKAPKLLIYWASTRHTGVPSRFSGSGSGTDFTLTISSLQPEDFATYYCQQYGSSVLTFGGGTKVEIK
notes: Only variable regions are tied to this name

Experiments:
[1] = molecular target: T1, Biotinylated CD96 antigen (human, UniProt P40200-2 22-503, limits assumed, biotinylated); experiment: competition ELISA: antibody B pre-incubated with biotinylated CD96 antigen, added to a plate coated with antibody A, HRP-streptavidin, OD450; competitor: coated h1722-010
T1 sequence (looked up): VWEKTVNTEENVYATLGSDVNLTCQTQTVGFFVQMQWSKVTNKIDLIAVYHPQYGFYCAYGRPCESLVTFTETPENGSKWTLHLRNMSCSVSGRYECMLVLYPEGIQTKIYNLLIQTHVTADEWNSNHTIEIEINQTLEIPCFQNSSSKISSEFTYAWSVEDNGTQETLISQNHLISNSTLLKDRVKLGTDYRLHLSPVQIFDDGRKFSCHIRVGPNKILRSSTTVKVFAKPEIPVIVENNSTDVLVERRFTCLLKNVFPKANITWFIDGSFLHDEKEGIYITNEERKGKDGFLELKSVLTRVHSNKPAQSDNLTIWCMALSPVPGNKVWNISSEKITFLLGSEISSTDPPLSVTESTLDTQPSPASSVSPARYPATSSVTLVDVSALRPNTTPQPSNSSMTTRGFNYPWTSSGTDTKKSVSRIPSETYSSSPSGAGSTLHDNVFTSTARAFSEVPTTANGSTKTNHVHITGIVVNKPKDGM
Protocol: (§1) Competitive assays of different antibodies binding to CD96 protein were used to classify binding epitopes of the antibodies. The specific experimental methods are as follows:
(§2) Antibody A was diluted to a concentration of 2 μg/ml with PBS buffer (Shanghai Yuanpei Biotechnology Co., Ltd. Cat No. B320), pH 7.4, added to a 96-well microtiter plate (Corning, Cat No. CLS3590-100EA) at a volume of 50 μl/well, and coated at 4° C. overnight. After discarding the liquid, 250 μl/well of 5% skim milk (BD skim milk, Cat No. 232100) blocking solution diluted with PBS was added, and the plate was incubated at 37° C. for 3 hours. After blocking, the blocking solution was discarded, and the plate was washed 5 times with PBST buffer (pH 7.4 PBS containing 0.05% tween-20) and stored for later use. Antibody B was diluted to 40 μg/ml and 8 μg/ml with 1% BSA, and Biotinylated CD96 antigen was simultaneously diluted to 4 μg/mL. Subsequently, antibody B and antigen were mixed in a 1:1 volume ratio, pre-incubated at 37° C. for 45 minutes, added into the enzyme plate coated with antibody A, thus incubating the plate in an incubator at 37° C. for 1.5 hours. […] The absorption value was read at 450 nm with a NOVOStar microplate reader, and the OD value was used to determine whether A and B CD96 antibodies compete with each other. […]

[2] = molecular target: T2, Full-length human CD96 on CHO-S cells (human, UniProt P40200 22-585); experiment: cell ELISA on fixed CHO-S cells overexpressing human CD96, HRP anti-human secondary antibody, OD450
T2 construct: also called CD96-CHOs; hCD96-CHOs
T2 sequence: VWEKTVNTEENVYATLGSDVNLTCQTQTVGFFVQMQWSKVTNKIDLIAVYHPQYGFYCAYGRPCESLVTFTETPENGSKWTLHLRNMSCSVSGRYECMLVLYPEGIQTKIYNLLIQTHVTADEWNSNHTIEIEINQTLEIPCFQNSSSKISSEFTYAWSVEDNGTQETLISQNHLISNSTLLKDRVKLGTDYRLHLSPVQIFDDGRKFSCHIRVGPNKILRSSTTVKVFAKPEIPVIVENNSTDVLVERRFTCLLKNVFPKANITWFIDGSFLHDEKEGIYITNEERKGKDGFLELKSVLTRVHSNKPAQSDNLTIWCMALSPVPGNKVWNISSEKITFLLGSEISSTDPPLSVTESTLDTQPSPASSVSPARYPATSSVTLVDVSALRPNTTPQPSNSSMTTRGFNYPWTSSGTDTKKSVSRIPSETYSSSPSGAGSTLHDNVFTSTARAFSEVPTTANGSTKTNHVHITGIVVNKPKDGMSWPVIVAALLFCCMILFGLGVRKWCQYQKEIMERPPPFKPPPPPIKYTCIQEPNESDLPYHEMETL
Protocol: The binding capacity of the anti-CD96 antibody was tested by binding experiments of the antibody to human CD96 protein overexpressing CHO-S cells. The full-length CD96 plasmid was transfected into CHO-S cells by electrotransfection, and cells were then screened for two weeks under pressure for the detection of the expression of CD96. After the over-expressing cells were fixed at the bottom of the 96-well plate, the density of the signal after adding the antibody was used to judge the binding activity of the antibody to CD96 overexpressing CHO-S cells. The specific experimental method is as follows:
The cells were seeded at a density of 9×10⁴/100 μL/well in a 96-well plate and cultured overnight. After aspirating the supernatant, the plate was washed once with PBS, subsequently, 100 μl/well immunostaining fixation solution (Biyuntian, P0098) was added and fixed for one hour at room temperature, and the plate was washed three times with PBS. Once the liquid was discarded, 250 μl/well of 5% skim milk (BD, 232100) blocking solution diluted with PBS was added, and the plate was blocked in an incubator at 37° C. for 2.5 hours. […] The absorption value was read at 450 nm with a NOVOStar microplate reader, and the EC50 value of the CD96 antibodies to CD96 overexpressing CHO-S cells was calculated (see FIG. 1 and Table 15).

[3] = molecular target: T1, Biotinylated CD96 antigen; experiment: competition ELISA: antibody B pre-incubated with biotinylated CD96 antigen, added to a plate coated with antibody A, HRP-streptavidin, OD450; competitor: coated h1718-012
Protocol: as §1, §2

| Binder | IC50 (read off the curve) [1] [nM] | EC50 (read off the curve) [2] [nM] | IC50 (read off the curve) [3] [nM] |
| --- | --- | --- | --- |
| B1 | ~0.5 |  |  |
| B2 |  | ~0.05 | ~0.6 |
